What all share (assay): other fluorescence titration; tryptophan fluorescence quenching: intrinsic fluorescence of the β subunit or β1a-SH3 domain in the cuvette (sub-micromolar; 50 nM β1a-FL for the AID titration) monitored while titrating the II-III loop or peptides; excitation 280 nm, emission 340 nm; corrected for dilution and intrinsic fluorescence of the titrant; nonlinear regression
The target of assay [1] is DHPR β1a SH3 domain (β1a residues V101-P272) (mouse) (UniProt Q8R3Z5).
Assay [2] addresses DHPR β1a subunit, full length (mouse) (UniProt Q8R3Z5).
Assay [3] concerns the target β1a/β2a RT loop chimera, HE to PG mutant (mouse).
For assay [4], the target named is β2a HE to PG mutant (mouse) (UniProt Q8CC27).

Sequence of DHPR β1a SH3 domain (β1a residues V101-P272) (mouse) (Q8R3Z5 other isoform, or with tags, fused parts or gaps): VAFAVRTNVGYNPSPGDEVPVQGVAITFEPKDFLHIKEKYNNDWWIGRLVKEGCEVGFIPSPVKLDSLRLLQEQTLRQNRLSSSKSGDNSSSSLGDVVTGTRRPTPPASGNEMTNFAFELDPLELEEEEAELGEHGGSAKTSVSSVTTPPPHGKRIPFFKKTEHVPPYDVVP
Sequence of DHPR β1a subunit, full length (mouse) (Q8R3Z5 other isoform, or with tags, fused parts or gaps): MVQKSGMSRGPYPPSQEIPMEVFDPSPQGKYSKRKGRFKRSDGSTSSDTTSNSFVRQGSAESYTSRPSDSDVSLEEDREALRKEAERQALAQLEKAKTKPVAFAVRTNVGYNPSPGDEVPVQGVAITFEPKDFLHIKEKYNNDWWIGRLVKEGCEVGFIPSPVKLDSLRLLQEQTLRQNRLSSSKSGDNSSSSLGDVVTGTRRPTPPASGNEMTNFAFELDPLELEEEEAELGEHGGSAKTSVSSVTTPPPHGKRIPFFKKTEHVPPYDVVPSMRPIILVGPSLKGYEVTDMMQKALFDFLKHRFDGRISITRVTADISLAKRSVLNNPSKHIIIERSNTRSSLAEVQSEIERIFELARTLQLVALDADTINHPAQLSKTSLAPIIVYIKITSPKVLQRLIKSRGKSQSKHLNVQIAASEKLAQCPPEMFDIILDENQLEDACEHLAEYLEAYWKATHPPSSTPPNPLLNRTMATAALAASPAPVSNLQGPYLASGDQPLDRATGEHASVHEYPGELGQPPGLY
Sequence of α1s II–III loop C region peptide (residues 720–765) (P07293 720-765): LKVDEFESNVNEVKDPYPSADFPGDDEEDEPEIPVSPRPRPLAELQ

In the case of “α1s C binding peptide 2 (from UniProt P07293 748-764)”, the Kd in assay [1] is 3.8 µM; in assay [2] it was 5.4 µM.
On to “sP1 A⟶P mutant (from UniProt P07293 733-745) (peptide)”, for which the Kd in assay [1] worked out at 2.3 µM; in assay [2] it was 4.5 µM.
Turning to “sP1 D⟶E mutant (from UniProt P07293 733-745) (peptide)”, the results for the Kd in assay [1] and in assay [2] were 17 µM and 15 µM, respectively.
For the substance DHPR α1s I-II loop AID peptide, in assay [2], the Kd turned out to be 0.0152 µM. That is a double-digit nanomolar value.
Turning to “sP1 F⟶T mutant (from UniProt P07293 733-745) (peptide)”, the Kd in assay [1] and in assay [2] was 4.6 µM throughout.
“sP1 P⟶T mutant (from UniProt P07293 733-745) (peptide)”: the Kd in assay [1] was 19 µM; in assay [2], 22 µM.
Turning to “α1s C binding peptide 1 (from UniProt P07293 733-745)”, the results for the Kd in assay [1] and in assay [2] were 2.6 µM and 3.6 µM, respectively.
For “α1s II–III loop C region peptide (residues 720–765) (from UniProt P07293 720-765)”, the dissociation constant Kd in assay [3] was 8.7 µM; in assay [4], 10.4 µM.

These data come from publication PMC12650144, “Interactive Role of the DHPR β1a SH3 Domain in Skeletal Muscle Excitation–Contraction Coupling” (Biomolecules, 2025).
